The experiment addresses soluble form of the cation-independent mannose 6-phosphate receptor isolated from fetal bovine serum (bovine, UniProt P08169 45-2313). In words: SPR. (Surface plasmon resonance follows binding to a sensor surface in real time, without labels.)

B1: human β-glucuronidase (enzyme, UniProt P08236 23-651, looked up)
chain: LQGGMLYPQESPSRECKELDGLWSFRADFSDNRRRGFEEQWYRRPLWESGPTVDMPVPSSFNDISQDWRLRHFVGWVWYEREVILPERWTQDLRTRVVLRIGSAHSYAIVWVNGVDTLEHEGGYLPFEADISNLVQVGPLPSRLRITIAINNTLTPTTLPPGTIQYLTDTSKYPKGYFVQNTYFDFFNYAGLQRSVLLYTTPTTYIDDITVTTSVEQDSGLVNYQISVKGSNLFKLEVRLLDAENKVVANGTGTQGQLKVPGVSLWWPYLMHERPAYLYSLEVQLTAQTSLGPVSDFYTLPVGIRTVAVTKSQFLINGKPFYFHGVNKHEDADIRGKGFDWPLLVKDFNLLRWLGANAFRTSHYPYAEEVMQMCDRYGIVVIDECPGVGLALPQFFNNVSLHHHMQVMEEVVRRDKNHPAVVMWSVANEPASHLESAGYYLKMVIAHTKSLDPSRPVTFVSNSNYAADKGAPYVDVICLNSYYSWYHDYGHLELIQLQLATQFENWYKKYQKPIIQSEYGAETIAGFHQDPPLMFTEEYQKSLLEQYHLGLDQKRRKYVVGELIWNFADFMTEQSPTRVLGNKKGIFTRQRQPKSAAFLLRERYWKIANETRYPHSVAKSQCLENSLFT
modifications: mannose 6-phosphate on its glycans (Man-6-P-containing lysosomal enzyme; nonphosphorylated enzyme removed)
In the case of B1, the equilibrium dissociation constant (Kd) turned out to be 22 ± 3 nM.

For orientation: Kd means the free concentration of one partner at which half of the binding sites on the other are occupied at equilibrium, for simple one-to-one binding. Higher therefore signals a looser complex.

(Values after publication PMC2814163 (Biochemistry, 2010).)
